# B1: hHDAC10 (Homo sapiens) (protein)
# chain: GTALVYHEDMTATRLLWDDPECEIERPERLTAALDRLRQRGLEQRCLRLSAREASEEELGLVHSPEYVSLVRETQVLGKEELQALSGQFDAIYFHPSTFHCARLAAGAGLQLVDAVLTGAVQNGLALVRPPGHHGQRAAANGFCVFNNVAIAAAHAKQKHGLHRILVVDWDVHHGQGIQYLFEDDPSVLYFSWHRYEHGRFWPFLRESDADAVGRGQGLGFTVNLPWNQVGMGNADYVAAFLHLLLPLAFEFDPELVLVSAGFDSAIGDPEGQMQATPECFAHLTQLLQVLAGGRVCAVLEGGYHLESLAESVCMTVQTLLGDPAPPLSGPMAPCQSALESIQSARAAQAPHWKSLQQQDVTAVPMSPSSHSPEGRPPPLLPGGPVCKAAASAPSSLLDQPCLCPAPSVRTAVALTTPDITLVLPPDVIQQEASALREETEAWARPHESLAREEALTALGKLLYLLDGMLDGQVNSGIAATPASAAAATLDVAVRRGLSHGAQRLLCVALGQLDRPPDLAHDGRSLWLNIRGKEAAALSMFHVSTPLPVMTGGFLSCILGLVLPLAYGFQPDLVLVALGPGHGLQGPHAALLAAMLRGLAGGRVLALLEENSTPQLAGILARVLNGEAPPSLGPSSVASPEDVQALMYLRGQLEPQWKMLQCHPHLVA
# notes: full-length, residues 2–669, MBP fusion
# B2: zHDAC6 CD2 (Danio rerio) (protein)
# chain: MDAVPDTKGSSGPPRGTPETKNNKKNLQEARRKGRMDRSKAEEEMSNELQNLDVQGKSKATGTGLVYVDAFTRFHCLWDASHPECPARVSTVMEMLETEGLLGRCVQVEARAVTEDELLLVHTKEYVELMKSTQNMTEEELKTLAEKYDSVYLHPGFFSSACLSVGSVLQLVDKVMTSQLRNGFSINRPPGHHAQADKMNGFCMFNNLAIAARYAQKRHRVQRVLIVDWDVHHGQGIQYIFEEDPSVLYFSVHRYEDGSFWPHLKESDSSSVGSGAGQGYNINLPWNKVGMESGDYITAFQQLLLPVAYEFQPQLVLVAAGFDAVIGDPKGGMQVSPECFSILTHMLKGVAQGRLVLALEGGYNLQSTAEGVCASMRSLLGDPCPHLPSSGAPCESALKSISKTISDLYPFWKSLQTFEGGPLSEVSPLPAPVCAEVKVSSPITGLVYDQRMMLHHNMWDSHHPELPQRISRIFSRHEELRLLSRCHRIPARLATEEELALCHSSKHISIIKSSEHMKPRDLNRLGDEYNSIFISNESYTCALLAAGSCFNSAQAILTGQVRNAVAIVRPPGHHAEKDTACGFCFFNTAALTARYAQSITRESLRVLIVDWDVHHGNGTQHIFEEDDSVLYISLHRYEDGAFFPNSEDANYDKVGLGKGRGYNVNIPWNGGKMGDPEYMAAFHHLVMPIAREFAPELVLVSAGFDAARGDPLGGFQVTPEGYAHLTHQLMSLAAGRVLIILEGGYNLTSISESMSMCTSMLLGDSPPSLDHLTPLKTSATVSINNVLRAHAPFWSSLRVNIPESLRLSLPSPKPKGKCTPGGKGKKSPRQSTPSQSPGQATHRPDQSGFDELTADLLSLNLNTSTSSNTSPESVAVGGARRKVKPNTHRVSAGLESESPLKLNPEKAGAGDDTDVKAETPNRSISEPVVTCDSSAVKDQESLVLEAAGGNTVQSVLERVFGAQATDVDTMYVVDPLPWCPHLESVRPVPAGGIDVFQPCEECGGEAENWICLFCYKVLCGRYVNQHMVTHGQESGHPVVLSFADLSVWCYACESYVHNKVLHEAKNAAHLVKFGEGIHPFN
# notes: catalytic domain 2
# Tests used:
# Assay in all cases: purified protein, by the assay type
# [1] = substrate: CC(=O)NCCCCCCCCN; parameters: steady-state kinetics of acetylpolyamine deacetylation, discontinuous LC-MS after dansyl chloride derivatization
# Protocol: (§1) To study steady-state kinetics with non-fluorogenic peptide substrates and acetylpolyamines, a discontinuous LC–MS was employed based on the protocol of assaying nonfluorogenic acetyllysine peptide substrates for HDAC6 (ref. [17]). Assays were performed in triplicate. Briefly, 5 μl of enzyme (0.050–20 μM) in HEPES buffer (20 mM HEPES (pH 7.5), 100 mM NaCl, 5 mM KCl, 1 mM MgCl2) was added to 35 μl of substrate solution to initiate the reaction. After incubation for 15–60 min at room temperature, the reaction was quenched by addition of 50 μl of 20 mM dansyl chloride dissolved in acetonitrile followed by 10 μl of NaHCO3 (1.6 M, pH 10.0). The deacetylation products were derivatized with dansyl chloride at 50 °C for 2 hrs. The deacetylation products were detected by LC–MS using a Waters SQD equipped with an Acquity UPLC (Waters, Milford, MA, USA) and quantified by using the standard curves generated from the mass signals of the corresponding deacetylated polyamines and peptides. Inhibition of HDAC10 activity was measured by using 0.49 μM zHDAC10 with 192 μM N^8-acetylspermidine. Data were analysed by logistic regression for IC50 determination and the inhibition constant Ki was calculated based on the Cheng-Prusoff equation, Ki=IC50 / (1+[S]/KM)[45]. Assays were performed in triplicate at room temperature. We next tested the PDAC activity of hHDAC10 and zHDAC10 against several polyamine substrates using the LC–MS assay (Fig. 2, Supplementary Fig. 3 and Supplementary Table 1). […] For hHDAC10 and zHDAC10, kcat/KM=2,900±200 and 4,600±300 M^−1 s^−1, respectively; in comparison, N^1-acetylspermidine was a poor substrate with kcat/KM=24±5 and 7±2 M^−1 s^−1, respectively. Substrate specificity trends observed for zHDAC10 and hHDAC10 matched those of the previously reported mammalian N^8-acetylspermidine deacetylase activity. […] As a negative control, we examined the N^8-acetylspermidine deacetylase activity of human and zebrafish HDAC6 (ref. [17]). HDAC6 preferentially catalyses the deacetylation of the peptide substrate RGK(ac)-AMC with a catalytic efficiency >100-fold greater than that for the deacetylation of N^8-acetylspermidine. Therefore, HDAC6 is clearly an acetyllysine deacetylase and HDAC10 is an N^8-acetylspermidine deacetylase. It is notable that the molecular function of HDAC10 coincides with the cellular function of the cytosolic PDAC indicated in Fig. 1a.
# [2] = substrate: CC(=O)NCCCCCN; parameters: steady-state kinetics of acetylpolyamine deacetylation, discontinuous LC-MS after dansyl chloride derivatization
# Protocol: as §1
# [3] = substrate: CC(=O)NCCCCN; parameters: steady-state kinetics of acetylpolyamine deacetylation, discontinuous LC-MS after dansyl chloride derivatization
# Protocol: as §1
# [4] = substrate: CC(=O)NCCCCNCCCN; parameters: steady-state kinetics of acetylpolyamine deacetylation, discontinuous LC-MS after dansyl chloride derivatization
# Protocol: as §1
# [5] = substrate: CC(=O)NCCCCNCCCNC(C)=O; parameters: steady-state kinetics of acetylpolyamine deacetylation, discontinuous LC-MS after dansyl chloride derivatization
# Protocol: as §1
# [6] = substrate: CC(=O)NCCCNCCCCNCCCN; parameters: steady-state kinetics of acetylpolyamine deacetylation, discontinuous LC-MS after dansyl chloride derivatization
# Protocol: as §1
# [7] = substrate: CC(=O)NCCCC[C@H](NC(=O)[C@H](C)NC(C)=O)C(=O)N[C@@H](C)C(N)=O; parameters: discontinuous LC-MS deacetylation assay, dansylated product quantified, steady-state kinetics; conditions: 50.0 °C
# Protocol: (§2) To study steady-state kinetics with non-fluorogenic peptide substrates and acetylpolyamines, a discontinuous LC–MS was employed based on the protocol of assaying nonfluorogenic acetyllysine peptide substrates for HDAC6 (ref. [17]). Assays were performed in triplicate. Briefly, 5 μl of enzyme (0.050–20 μM) in HEPES buffer (20 mM HEPES (pH 7.5), 100 mM NaCl, 5 mM KCl, 1 mM MgCl2) was added to 35 μl of substrate solution to initiate the reaction. […] The deacetylation products were derivatized with dansyl chloride at 50 °C for 2 hrs. The deacetylation products were detected by LC–MS using a Waters SQD equipped with an Acquity UPLC (Waters, Milford, MA, USA) and quantified by using the standard curves generated from the mass signals of the corresponding deacetylated polyamines and peptides. Inhibition of HDAC10 activity was measured by using 0.49 μM zHDAC10 with 192 μM N^8-acetylspermidine. Data were analysed by logistic regression for IC50 determination and the inhibition constant Ki was calculated based on the Cheng-Prusoff equation, Ki=IC50 / (1+[S]/KM)[45]. Assays were performed in triplicate at room temperature.
# [8] = substrate: CC(=O)NCCCC[C@H](NC(C)=O)C(N)=O; parameters: discontinuous LC-MS deacetylation assay, dansylated product quantified, steady-state kinetics; conditions: 50.0 °C
# Protocol: as §2
# [9] = substrate: CC(=O)NCCCC[C@H](NC(=O)[C@H](C)NC(=O)CNC(C)=O)C(=O)Nc1ccc2c(C)cc(=O)oc2c1; parameters: fluorogenic AMC-conjugated acetyllysine peptide deacetylation, steady-state kinetics
# Excerpt: To determine steady-state kinetic parameters for the hydrolysis of a variety of acetylpolyamine and acetyllysine substrates, we prepared full-length recombinant HDAC10 from human (H. sapiens, hHDAC10) and zebrafish (D. rerio, zHDAC10). The CDs of these orthologues are highly similar based on 63%/79% sequence identity/similarity; only full-length constructs yielded soluble proteins. We first assayed the lysine deacetylase activity of these constructs against two commercially available aminomethylcoumarin (AMC)-conjugated fluorogenic acetyllysine peptides, GAK(ac)-AMC and RGK(ac)-AMC (molecular structures of all substrates are shown in Supplementary Fig. 2). […] These measurements were consistent with earlier studies reporting that HDAC10 activity was not measurable using fluorogenic peptide substrates. We also tested activity with 11 non-fluorogenic acetyllysine substrates using a […] chromatography–mass spectrometry (LC–MS)-based discontinuous assay[17] to avoid potential steric clashes that might occur with the bulky AMC group. These substrates included K(ac)NL and GAK(ac)NLQ, which mimic the peptide segment containing K73 in the proposed HDAC10 substrate MutS homologue 2 (MSH2)[22]. Again, we observed no or very low catalytic activity (Fig. 2 and Supplementary Table 1). In comparison with its closest relative, the cytosolic isozyme HDAC6 (ref. [17]), HDAC10 was clearly not an efficient lysine deacetylase.
# [10] = substrate: CC(=O)NCCCC[C@H](NC(=O)[C@H](C)NC(=O)CNC(C)=O)C(=O)N[C@@H](CC(N)=O)C(=O)N[C@@H](CC(C)C)C(=O)N[C@@H](CCC(N)=O)C(N)=O; parameters: discontinuous LC-MS deacetylation assay, dansylated product quantified, steady-state kinetics; conditions: 50.0 °C
# Protocol: as §2
protein,measurement,setting,value
B1,kcat,[1]; 50.0 °C,0.1 ± 0.02 s⁻¹
same,kcat/Km,[1]; 50.0 °C,620 ± 50 M⁻¹ s⁻¹
same,Km,[1]; room temperature,160 ± 40 µM
same,kcat,[2]; 50.0 °C,0.14 ± 0.02 s⁻¹
same,kcat/Km,[2]; 50.0 °C,1300 ± 200 M⁻¹ s⁻¹
same,Km,[2]; room temperature,110 ± 20 µM
same,kcat,[3]; 50.0 °C,0.35 ± 0.04 s⁻¹
same,kcat/Km,[3]; 50.0 °C,2100 ± 300 M⁻¹ s⁻¹
same,Km,[3]; room temperature,170 ± 50 µM
same,kcat,[4]; 50.0 °C,0.28 ± 0.02 s⁻¹
same,kcat/Km,[4]; 50.0 °C,2900 ± 200 M⁻¹ s⁻¹
same,Km,[4]; room temperature,100 ± 10 µM
same,kcat,[5]; 50.0 °C,0.14 ± 0.08 s⁻¹
same,kcat/Km,[5]; 50.0 °C,900 ± 300 M⁻¹ s⁻¹
same,Km,[5]; room temperature,150 ± 90 µM
same,kcat,[6]; 50.0 °C,0.011 ± 0.002 s⁻¹
same,kcat/Km,[6]; 50.0 °C,60 ± 10 M⁻¹ s⁻¹
same,Km,[6]; room temperature,180 ± 20 µM
same,Km,[7],60 ± 20 µM
same,kcat,[7],0.0006 ± 0.0001 s⁻¹
same,kcat/Km,[7],11 ± 3 M⁻¹ s⁻¹
same,Km,[8],140 ± 40 µM
same,kcat,[8],0.0092 ± 0.0008 s⁻¹
same,kcat/Km,[8],66 ± 5 M⁻¹ s⁻¹
same,Km,[9],10 ± 1 µM
same,kcat,[9],0.00038 ± 2e-05 s⁻¹
same,kcat/Km,[9],38 ± 2 M⁻¹ s⁻¹
B2,Km,[10],150 ± 20 µM
same,kcat,[10],1.26 ± 0.07 s⁻¹
same,kcat/Km,[10],8300 M⁻¹ s⁻¹

# — paper PMC5454378, “Histone deacetylase 10 structure and molecular function as a polyamine deacetylase” (Nature Communications, 2017)
